The labels stand for the following.
B1: PD-L1/CD155 Stack 1: (CD155 IgV) (G4S)2 Fc (G4S)3 (PD-L1 IgV) (Fc fusion)
chain: WPPPGTGDVVVQAPTQVSGFLGDSVTLPCYLQVPNMEVTHVSQLTWARHGESGSMAVFHQTQGPWYAESKRLEFVAARLGAELRNASLRMFGLRVEDEGNYTCQFVTFPQRSRSVDIWLRVLGGGGSGGGGSEPKSSDKTHTCPPCPAPEAEGAPSVFLFPPKPKDTLMISRTPEVTCVVVDVSHEDPEVKFNWYVDGVEVHNAKTKPREEQYNSTYRVVSVLTVLHQDWLNGKEYKCKVSNKALPAPIEKTISKAKGQPREPQVYTLPPSRDELTKNQVSLTCLVKGFYPSDIAVEWESNGQPENNYKTTPPVLDSDGSFFLYSKLTVDKSRWQQGNVFSCSVMHEALHNHYTQKSLSLSPGKGGGGSGGGGSGGGGSFTVTVPKDLYVVEYGSNMTIECKFPVEKQLDLAALIVYWEMEGKDIIQFVHGEEDQKAQHSSYRQRARLLKDQLSLGNAALQITDVKLQDAGVYRCMISYGGGADYKRITVKVNA
B2: PD-L1/CD155 Stack 3: (CD155 IgV) (G4S)3 (PD-L1 IgV) (G4S)2 Fc (Fc fusion)
chain: WPPPGTGDVVVQAPTQVSGFLGDSVTLPCYLQVPNMEVTHVSQLTWARHGESGSMAVFHQTQGPWYAESKRLEFVAARLGAELRNASLRMFGLRVEDEGNYTCQFVTFPQRSRSVDIWLRVLGGGGSGGGGSGGGGSFTVTVPKDLYVVEYGSNMTIECKFPVEKQLDLAALIVYWEMEGKDIIQFVHGEEDQKAQHSSYRQRARLLKDQLSLGNAALQITDVKLQDAGVYRCMISYGGGADYKRITVKVNAGGGGSGGGGSEPKSSDKTHTCPPCPAPEAEGAPSVFLFPPKPKDTLMISRTPEVTCVVVDVSHEDPEVKFNWYVDGVEVHNAKTKPREEQYNSTYRVVSVLTVLHQDWLNGKEYKCKVSNKALPAPIEKTISKAKGQPREPQVYTLPPSRDELTKNQVSLTCLVKGFYPSDIAVEWESNGQPENNYKTTPPVLDSDGSFFLYSKLTVDKSRWQQGNVFSCSVMHEALHNHYTQKSLSLSPGK
B3: PD-L1/CD155 Stack 2: (PD-L1 IgV) (G4S)2 Fc(G4S)3 (CD155 IgV) (Fc fusion)
chain: FTVTVPKDLYVVEYGSNMTIECKFPVEKQLDLAALIVYWEMEGKDIIQFVHGEEDQKAQHSSYRQRARLLKDQLSLGNAALQITDVKLQDAGVYRCMISYGGGADYKRITVKVNAGGGGSGGGGSEPKSSDKTHTCPPCPAPEAEGAPSVFLFPPKPKDTLMISRTPEVTCVVVDVSHEDPEVKFNWYVDGVEVHNAKTKPREEQYNSTYRVVSVLTVLHQDWLNGKEYKCKVSNKALPAPIEKTISKAKGQPREPQVYTLPPSRDELTKNQVSLTCLVKGFYPSDIAVEWESNGQPENNYKTTPPVLDSDGSFFLYSKLTVDKSRWQQGNVFSCSVMHEALHNHYTQKSLSLSPGKGGGGSGGGGSGGGGSWPPPGTGDVVVQAPTQVSGFLGDSVTLPCYLQVPNMEVTHVSQLTWARHGESGSMAVFHQTQGPWYAESKRLEFVAARLGAELRNASLRMFGLRVEDEGNYTCQFVTFPQRSRSVDIWLRVL

Three molecules from patent US20260062456A1 (ALPINE IMMUNE SCIENCES, published 2026) can be followed below.

The target of one test is human PD-1 stably expressed on Jurkat/IL-2 reporter cells (Jurkat/PD-1 cells) (human, UniProt Q15116 25-288). As to the kind of experiment: cell-based or functional assay.
Sequence of human PD-1 stably expressed on Jurkat/IL-2 reporter cells (Jurkat/PD-1 cells) (Q15116 25-288): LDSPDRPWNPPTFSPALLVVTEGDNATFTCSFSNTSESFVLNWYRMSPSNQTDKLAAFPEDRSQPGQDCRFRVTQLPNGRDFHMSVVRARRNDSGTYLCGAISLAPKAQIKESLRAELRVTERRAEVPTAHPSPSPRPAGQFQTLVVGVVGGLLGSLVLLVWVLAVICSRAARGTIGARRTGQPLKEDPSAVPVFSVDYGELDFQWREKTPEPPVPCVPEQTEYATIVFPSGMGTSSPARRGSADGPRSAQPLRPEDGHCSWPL
For B1, the “Fold Increase Compared to non-stack variant CD155 IgV-Fc control” value was 1.7 fold; the “Fold Increase Compared to non-stack variant PD-L1 IgV-Fc control” value came out at 0.6 fold; the “Fold Increase Compared to variant PD-L1 IgV-Fc and variant CD155 IgV-Fc” value amounted to 0.8 fold; the RLU came out at 573 RLU.
For B2, the “Fold Increase Compared to non-stack variant CD155 IgV-Fc control” value is 1.3 fold; the “Fold Increase Compared to non-stack variant PD-L1 IgV-Fc control” value came to 0.5 fold; the “Fold Increase Compared to variant PD-L1 IgV-Fc and variant CD155 IgV-Fc” value was 0.6 fold; the RLU came to 434 RLU.
Taken in the same sequence, the figures for B3 were 2.8 fold, 1 fold, 1.4 fold and 962 RLU.

The next test addresses T1, human TIGIT stably expressed on Jurkat/IL-2 reporter cells (Jurkat/TIGIT cells) (human, UniProt Q495A1 22-244).
T1 sequence (looked up): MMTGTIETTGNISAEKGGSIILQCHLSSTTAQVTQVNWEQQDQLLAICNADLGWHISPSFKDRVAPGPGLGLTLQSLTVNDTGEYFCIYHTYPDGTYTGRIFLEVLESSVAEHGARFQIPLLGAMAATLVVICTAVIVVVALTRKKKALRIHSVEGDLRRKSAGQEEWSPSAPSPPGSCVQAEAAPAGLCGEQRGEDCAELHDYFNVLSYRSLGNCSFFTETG
As to the kind of experiment: cell-based or functional assay.
Consider B1, for which the “Fold Increase Compared to non-stack variant CD155 IgV-Fc control” value worked out at 1.7 fold; the “Fold Increase Compared to non-stack variant PD-L1 IgV-Fc control” value came out at 0.6 fold; the “Fold Increase Compared to variant PD-L1 IgV-Fc and variant CD155 IgV-Fc” value stood at 0.8 fold; the RLU came out at 573 RLU.
As to B2, the “Fold Increase Compared to non-stack variant CD155 IgV-Fc control” value came out at 1.3 fold; the “Fold Increase Compared to non-stack variant PD-L1 IgV-Fc control” value is 0.5 fold; the “Fold Increase Compared to variant PD-L1 IgV-Fc and variant CD155 IgV-Fc” value worked out at 0.6 fold; the RLU was 434 RLU.
For B3 the same measures were 2.8 fold, 1 fold, 1.4 fold and 962 RLU.
